Results from the supplement of paper PMC9112550, “Optimization of the antimicrobial peptide Bac7 by deep mutational scanning” (BMC Biology, 2022).

System: Escherichia coli TOP10
Assay: shrunken log2 fold change of peptide-encoding DNA abundance (4.5 h post-induction vs induction); higher = less antimicrobial activity (less host growth inhibition)
Details: time post-induction: 4.5 h; library: site-saturation at positions 5, 18, 19, 20
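Note: peptides expressed intracellularly from a pBAD plasmid library in pooled LB shake-flask culture, induced with 0.3% L-arabinose, DNA abundance read by NGS, three biological replicates, DESeq2 with apeglm shrinkage.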

Sequence	shrunken log2 fold change
RRIRWRPPRLPRPRPRPKFMPRP	-0.0525
RRIRGRPPRLPRPRPRPEHEPRP	0.176
RRIRPRPPRLPRPRPRPMLMPRP	0.459
RRIRCRPPRLPRPRPRPEKRPRP	-0.123
RRIRCRPPRLPRPRPRPTHLPRP	0.232
RRIRGRPPRLPRPRPRPEHSPRP	0.114
RRIRERPPRLPRPRPRPDKAPRP	-0.0525
RRIRTRPPRLPRPRPRPPGRPRP	0.586
RRIRMRPPRLPRPRPRPDEQPRP	0.0522
RRIRDRPPRLPRPRPRPFDAPRP	-0.13
RRIRVRPPRLPRPRPRPLQMPRP	0.312
RRIRCRPPRLPRPRPRPCYSPRP	-0.379
RRIRIRPPRLPRPRPRPVTVPRP	0.129
RRIRPRPPRLPRPRPRPLRMPRP	0.596
RRIRYRPPRLPRPRPRPYPQPRP	-0.466
RRIRTRPPRLPRPRPRPLGRPRP	2.94
RRIRWRPPRLPRPRPRPAVLPRP	0.117
RRIRGRPPRLPRPRPRPLDHPRP	0.178
RRIRARPPRLPRPRPRPIAAPRP	0.925
RRIRIRPPRLPRPRPRPELRPRP	0.0361
RRIRMRPPRLPRPRPRPCLCPRP	-0.0635
RRIRTRPPRLPRPRPRPMGTPRP	-0.0546

Sequence	shrunken log2 fold change
RRIRLRPPRLPRPRPRPRFFPRP	0.0823
RRIRWRPPRLPRPRPRPPLWPRP	0.558
RRIRARPPRLPRPRPRPAVVPRP	0.16
RRIRRRPPRLPRPRPRPCEIPRP	0.0684
RRIRGRPPRLPRPRPRPALWPRP	0.985
RRIRNRPPRLPRPRPRPPVKPRP	-0.123
RRIRIRPPRLPRPRPRPTFQPRP	-0.0244
RRIRARPPRLPRPRPRPFCQPRP	-0.0229
RRIRFRPPRLPRPRPRPYFYPRP	-0.808
RRIRSRPPRLPRPRPRPCPEPRP	-0.444
RRIRFRPPRLPRPRPRPRGVPRP	0.0819
RRIRGRPPRLPRPRPRPLVVPRP	0.39
RRIRGRPPRLPRPRPRPEQAPRP	1.83
RRIRFRPPRLPRPRPRPQMWPRP	-0.0128
RRIRMRPPRLPRPRPRPIVPPRP	0.208
RRIRLRPPRLPRPRPRPNQEPRP	0.0423
RRIRERPPRLPRPRPRPKQSPRP	-0.0888
RRIRWRPPRLPRPRPRPSRTPRP	0.188
RRIRMRPPRLPRPRPRPVTDPRP	-0.0129
RRIRARPPRLPRPRPRPRRGPRP	0.759
RRIRTRPPRLPRPRPRPHCYPRP	-0.136
RRIRYRPPRLPRPRPRPYCWPRP	-1.07

Sequence	shrunken log2 fold change
RRIRFRPPRLPRPRPRPIPRPRP	0.365
RRIRKRPPRLPRPRPRPLWGPRP	0.115
RRIRWRPPRLPRPRPRPAWPPRP	0.558
RRIRKRPPRLPRPRPRPTCFPRP	0.259
RRIRQRPPRLPRPRPRPMYKPRP	-0.0194
RRIRHRPPRLPRPRPRPFNNPRP	-0.159
RRIRARPPRLPRPRPRPLHGPRP	0.155
RRIRRRPPRLPRPRPRPPQDPRP	1.39
RRIRLRPPRLPRPRPRPPCGPRP	0.191
RRIRMRPPRLPRPRPRPCNSPRP	-0.138
RRIRTRPPRLPRPRPRPSVLPRP	-0.239
RRIRWRPPRLPRPRPRPEREPRP	0.295
RRIRPRPPRLPRPRPRPHGCPRP	0.0229
RRIRDRPPRLPRPRPRPLFVPRP	-0.168
RRIRWRPPRLPRPRPRPDWMPRP	0.212
RRIRDRPPRLPRPRPRPPWDPRP	0.442
RRIRARPPRLPRPRPRPQYGPRP	-0.442
RRIRYRPPRLPRPRPRPYRDPRP	-0.0114
RRIRIRPPRLPRPRPRPCMEPRP	-0.799
RRIRCRPPRLPRPRPRPVWNPRP	0.0577
RRIRQRPPRLPRPRPRPYYCPRP	-0.332
RRIRRRPPRLPRPRPRPCCKPRP	-0.0824

Sequence	shrunken log2 fold change
RRIRWRPPRLPRPRPRPVMAPRP	0.171
RRIRTRPPRLPRPRPRPKFMPRP	-0.0326
RRIRGRPPRLPRPRPRPAYHPRP	-0.141
RRIRVRPPRLPRPRPRPKAQPRP	0.107
RRIRHRPPRLPRPRPRPWHEPRP	-0.0659
RRIRQRPPRLPRPRPRPHYRPRP	-0.0839
RRIRSRPPRLPRPRPRPNHHPRP	-0.566
RRIRIRPPRLPRPRPRPAVMPRP	-0.129
RRIRTRPPRLPRPRPRPFNEPRP	-0.311
RRIRPRPPRLPRPRPRPDCHPRP	-0.204
RRIRRRPPRLPRPRPRPPHVPRP	0.915
RRIRARPPRLPRPRPRPIIKPRP	-0.09
RRIRQRPPRLPRPRPRPFMHPRP	-0.0117
RRIRCRPPRLPRPRPRPMSDPRP	0.113
RRIRSRPPRLPRPRPRPMKKPRP	-0.0833
RRIRYRPPRLPRPRPRPFYEPRP	-1.2
RRIRWRPPRLPRPRPRPEMEPRP	0.451
RRIRFRPPRLPRPRPRPLSDPRP	0.207
RRIRPRPPRLPRPRPRPYNGPRP	-0.656
RRIRPRPPRLPRPRPRPHPNPRP	0.00254
RRIRWRPPRLPRPRPRPQYRPRP	0.00862
RRIRPRPPRLPRPRPRPAWHPRP	0.362

Sequence	shrunken log2 fold change
RRIRIRPPRLPRPRPRPIASPRP	-0.567
RRIRCRPPRLPRPRPRPTDYPRP	1.93
RRIRMRPPRLPRPRPRPLQWPRP	0.104
RRIRCRPPRLPRPRPRPQPVPRP	0.399
RRIRVRPPRLPRPRPRPLTSPRP	0.0775
RRIRKRPPRLPRPRPRPIGWPRP	0.7
RRIRKRPPRLPRPRPRPLESPRP	0.515
RRIRWRPPRLPRPRPRPHQIPRP	-0.154
RRIRYRPPRLPRPRPRPAHWPRP	0.0585
RRIRQRPPRLPRPRPRPKLQPRP	1.59
RRIRTRPPRLPRPRPRPPNTPRP	0.443
RRIRYRPPRLPRPRPRPYHIPRP	-0.23
RRIRLRPPRLPRPRPRPPWAPRP	0.632
RRIRHRPPRLPRPRPRPDTNPRP	0.102
RRIRERPPRLPRPRPRPKQLPRP	0.123
RRIRPRPPRLPRPRPRPIRTPRP	0.289
RRIRWRPPRLPRPRPRPLHFPRP	0.136
RRIRRRPPRLPRPRPRPNCKPRP	0.155
RRIRWRPPRLPRPRPRPLDTPRP	0.0244
RRIRCRPPRLPRPRPRPLYMPRP	-0.807
RRIRCRPPRLPRPRPRPVCIPRP	-0.499
